Laboratory results taken from US20190031783A1 (AbbVie / Abbott, published 2019).
Residue numbers refer to the chain shown, from its start. Several values for one entry are separate records, joined by “and”; a condition that tells them apart may be missing. Equal values may be shown once.

B1: h1A11.1 humanized anti-DLL4 mAb (antibody, V domains shown)
VH: EVQLVESGGGLVQPGGSLRLSCAASGFTFSNFPMAWVRQAPGKGLEWVATISSSDGTTYYRDSVKGRFTISRDNAKNSLYLQMNSLRAEDTAVYYCARGYYNSPFAYWGQGTLVTVSS
VL: DIQMTQSPSSLSASVGDRVTITCRASEDIYSNLAWYQQKPGKAPKLLIYDTNNLADGVPSRFSGSGSGTDFTLTISSLQPEDFATYYCQQYNNYPPTFGQGTKLEIKR
B2: Av-GS10-h1A11.1 (bispecific antibody, human IgG1)
VH: EVQLVESGGGLVQPGGSLRLSCAASGYTFTNYGMNWVRQAPGKGLEWVGWINTYTGEPTYAADFKRRFTFSLDTSKSTAYLQMNSLRAEDTAVYYCAKYPHYYGSSHWYFDVWGQGTLVTVSSGGGGSGGGGSEVQLVESGGGLVQPGGSLRLSCAASGFTFSNFPMAWVRQAPGKGLEWVATISSSDGTTYYRDSVKGRFTISRDNAKNSLYLQMNSLRAEDTAVYYCARGYYNSPFAYWGQGTLVTVSS
VL: DIQMTQSPSSLSASVGDRVTITCSASQDISNYLNWYQQKPGKAPKVLIYFTSSLHSGVPSRFSGSGSGTDFTLTISSLQPEDFATYYCQQYSTVPWTFGQGTKVEIKRGGSGGGGSGDIQMTQSPSSLSASVGDRVTITCRASEDIYSNLAWYQQKPGKAPKLLIYDTNNLADGVPSRFSGSGSGTDFTLTISSLQPEDFATYYCQQYNNYPPTFGQGTKLEIKR
notes: DVD-Ig
B3: Av-LL-h1A11.1 (bispecific antibody, human IgG1)
VH: EVQLVESGGGLVQPGGSLRLSCAASGYTFTNYGMNWVRQAPGKGLEWVGWINTYTGEPTYAADFKRRFTFSLDTSKSTAYLQMNSLRAEDTAVYYCAKYPHYYGSSHWYFDVWGQGTLVTVSSASTKGPSVFPLAPEVQLVESGGGLVQPGGSLRLSCAASGFTFSNFPMAWVRQAPGKGLEWVATISSSDGTTYYRDSVKGRFTISRDNAKNSLYLQMNSLRAEDTAVYYCARGYYNSPFAYWGQGTLVTVSS
VL: DIQMTQSPSSLSASVGDRVTITCSASQDISNYLNWYQQKPGKAPKVLIYFTSSLHSGVPSRFSGSGSGTDFTLTISSLQPEDFATYYCQQYSTVPWTFGQGTKVEIKRTVAAPSVFIFPPDIQMTQSPSSLSASVGDRVTITCRASEDIYSNLAWYQQKPGKAPKLLIYDTNNLADGVPSRFSGSGSGTDFTLTISSLQPEDFATYYCQQYNNYPPTFGQGTKLEIKR
notes: DVD-Ig
B4: Av-GS6-h1A11.1 (bispecific antibody, human IgG1)
VH: EVQLVESGGGLVQPGGSLRLSCAASGYTFTNYGMNWVRQAPGKGLEWVGWINTYTGEPTYAADFKRRFTFSLDTSKSTAYLQMNSLRAEDTAVYYCAKYPHYYGSSHWYFDVWGQGTLVTVSSGGGGSGEVQLVESGGGLVQPGGSLRLSCAASGFTFSNFPMAWVRQAPGKGLEWVATISSSDGTTYYRDSVKGRFTISRDNAKNSLYLQMNSLRAEDTAVYYCARGYYNSPFAYWGQGTLVTVSS
VL: DIQMTQSPSSLSASVGDRVTITCSASQDISNYLNWYQQKPGKAPKVLIYFTSSLHSGVPSRFSGSGSGTDFTLTISSLQPEDFATYYCQQYSTVPWTFGQGTKVEIKRGGSGGDIQMTQSPSSLSASVGDRVTITCRASEDIYSNLAWYQQKPGKAPKLLIYDTNNLADGVPSRFSGSGSGTDFTLTISSLQPEDFATYYCQQYNNYPPTFGQGTKLEIKR
notes: DVD-Ig
B5: Av-SL-h1A11.1 (bispecific antibody, human IgG1)
VH: B4 VH with G124A, G125S, G126T, G127K, S128G, G129P
VL: B3 VL
notes: DVD-Ig
B6: Av-LS-h1A11.1 (bispecific antibody, human IgG1)
VH: B3 VH
VL: B4 VL with G109T, G110V, S111A, G112A, G113P
notes: DVD-Ig
B7: Av-SS-h1A11.1 (bispecific antibody, human IgG1)
VH: B4 VH with G124A, G125S, G126T, G127K, S128G, G129P
VL: B4 VL with G109T, G110V, S111A, G112A, G113P
notes: DVD-Ig
B8: h1A11.1-GS14-Av (bispecific antibody, human IgG1)
VH: EVQLVESGGGLVQPGGSLRLSCAASGFTFSNFPMAWVRQAPGKGLEWVATISSSDGTTYYRDSVKGRFTISRDNAKNSLYLQMNSLRAEDTAVYYCARGYYNSPFAYWGQGTLVTVSSGGGGSGGGGSGGGGEVQLVESGGGLVQPGGSLRLSCAASGYTFTNYGMNWVRQAPGKGLEWVGWINTYTGEPTYAADFKRRFTFSLDTSKSTAYLQMNSLRAEDTAVYYCAKYPHYYGSSHWYFDVWGQGTLVTVSS
VL: DIQMTQSPSSLSASVGDRVTITCRASEDIYSNLAWYQQKPGKAPKLLIYDTNNLADGVPSRFSGSGSGTDFTLTISSLQPEDFATYYCQQYNNYPPTFGQGTKLEIKRGGSGGGGSGGGGSDIQMTQSPSSLSASVGDRVTITCSASQDISNYLNWYQQKPGKAPKVLIYFTSSLHSGVPSRFSGSGSGTDFTLTISSLQPEDFATYYCQQYSTVPWTFGQGTKVEIKR
notes: DVD-Ig
B9: Av-GS14-h1A11.1 (bispecific antibody, human IgG1)
VH: EVQLVESGGGLVQPGGSLRLSCAASGYTFTNYGMNWVRQAPGKGLEWVGWINTYTGEPTYAADFKRRFTFSLDTSKSTAYLQMNSLRAEDTAVYYCAKYPHYYGSSHWYFDVWGQGTLVTVSSGGGGSGGGGSGGGGEVQLVESGGGLVQPGGSLRLSCAASGFTFSNFPMAWVRQAPGKGLEWVATISSSDGTTYYRDSVKGRFTISRDNAKNSLYLQMNSLRAEDTAVYYCARGYYNSPFAYWGQGTLVTVSS
VL: DIQMTQSPSSLSASVGDRVTITCSASQDISNYLNWYQQKPGKAPKVLIYFTSSLHSGVPSRFSGSGSGTDFTLTISSLQPEDFATYYCQQYSTVPWTFGQGTKVEIKRGGSGGGGSGGGSDIQMTQSPSSLSASVGDRVTITCRASEDIYSNLAWYQQKPGKAPKLLIYDTNNLADGVPSRFSGSGSGTDFTLTISSLQPEDFATYYCQQYNNYPPTFGQGTKLEIKR
notes: DVD-Ig
B10: h1A11.1-GS10-Av (bispecific antibody, human IgG1)
VH: EVQLVESGGGLVQPGGSLRLSCAASGFTFSNFPMAWVRQAPGKGLEWVATISSSDGTTYYRDSVKGRFTISRDNAKNSLYLQMNSLRAEDTAVYYCARGYYNSPFAYWGQGTLVTVSSGGGGSGGGGSEVQLVESGGGLVQPGGSLRLSCAASGYTFTNYGMNWVRQAPGKGLEWVGWINTYTGEPTYAADFKRRFTFSLDTSKSTAYLQMNSLRAEDTAVYYCAKYPHYYGSSHWYFDVWGQGTLVTVSS
VL: DIQMTQSPSSLSASVGDRVTITCRASEDIYSNLAWYQQKPGKAPKLLIYDTNNLADGVPSRFSGSGSGTDFTLTISSLQPEDFATYYCQQYNNYPPTFGQGTKLEIKRGGSGGGGSGDIQMTQSPSSLSASVGDRVTITCSASQDISNYLNWYQQKPGKAPKVLIYFTSSLHSGVPSRFSGSGSGTDFTLTISSLQPEDFATYYCQQYSTVPWTFGQGTKVEIKR
notes: DVD-Ig; also called h1A11.GS10-Av

How the values were obtained:
[1] = target: human DLL4, full-length, expressed on HEK293G cells (human, UniProt Q9NR61 27-685); experiment: cell-based or functional assay
[2] = target: T1, purified recombinant human DLL4 extracellular domain (ECD) (human, UniProt Q9NR61 27-529); experiment: SPR (Biacore), DVD captured via anti-human Fc, DLL4 ECD injected, 25 C
T1 construct: extracellular domain; also called human DLL4529; huDLL4
Method: For DLL4 binding kinetic measurements the assay buffer was HBS-EPB: 10 mM Hepes, pH7.5, 150 mM NaCl, 3 mM EDTA, 0.005% Tween 20, 0.1 mg/ml BSA (Sigma A7906). For VEGF binding kinetic measurements the assay buffer was HBS-EP+(3N01B): 10 mM Hepes, pH7.5, 300 mM NaCl, 3 mM EDTA, 0.05% Tween 20, 0.1 mg/ml BSA (Sigma A7906). For example, approximately 9000 RU of goat anti-human Fc specific polyclonal antibody (Thermo Fisher Scientific Inc., Rockford, Ill.) diluted in 10 mM sodium acetate (pH 4.5) is directly immobilized across a CM5 research grade biosensor chip using a standard amine coupling kit according to manufacturer's instructions and procedures at 25 ug/ml. Unreacted moieties on the biosensor surface are blocked with ethanolamine. For kinetic analysis, rate equations derived from the 1:1 Langmuir binding model are fitted simultaneously to multiple antigen injections (using global fit analysis) with the use of Scrubber 2 (BioLogic Software), Biacore Biaevaluation 4.0.1 software or Biacore T100 Evaluation software. Purified antibodies are diluted in running buffer for capture across goat anti-human Fc reaction surfaces. Antibodies to be captured as a ligand (1 ug/ml) are injected over reaction matrices at a flow rate of 10 ul/min. During the assay, all measurements are referenced against the capture surface alone (i.e. with no captured antibody). […] The equilibrium dissociation constant KD (M) of the reaction between antibodies and the target antigen is then calculated from the kinetic rate constants by the following formula: KD=Koff/Kₒₙ. Binding is recorded as a function of time and kinetic rate constants are calculated.

[3] = target: T1, purified recombinant human DLL4 …; experiment: Notch competition ELISA: inhibition of biotin DLL4 ECD binding to coated human Notch-1
Method: Plates were then washed 3× with wash buffer (PBS, 0.05% Tween-20) and blocked with 200 μl/well blocking buffer (D-PBS, 1% BSA, 1 mM CaCl₂, 0.05% Tween-20) for 1 hour at 25° C. […] Assay plates were washed after blocking, and incubated with DLL4/antibody mixtures (100 μl/well, 1 hour at 25° C. with shaking). Plates were washed again and 100 μl/well of streptavidin conjugated with HRP (Fitzgerald #65R-S104PHRPx, diluted 1:5,000 in blocking buffer) was added for 1 hour at 25° C. with shaking. After a final wash, plates were developed using 100 μl/well substrate (TMB Sigma #T8665), and the reaction was stopped using 100 μl/well 1N HCl, and the absorbance was read at 450 nm. Data was analyzed using Graphpad Prism software and IC₅₀ values were reported as the concentration of antibody required to achieve 50% reduction of DLL4 binding to Notch1.

| Binder | Kd [2] | IC50 [3] | further results |
| --- | --- | --- | --- |
| B1 |  |  | IC50 (nM), DLL4-Notch reporter assay, h1A11.1 + Av mixture, 0 nM VEGF [1]: 8.64 nM and 9.17 nM; IC50 (nM), DLL4-Notch reporter assay, h1A11.1 + Av mixture, 6 nM BSG2 (negative control protein) present [1]: 9.55 nM; IC50 (nM), DLL4-Notch reporter assay, h1A11.1 + Av mixture, 6 nM VEGF present [1]: 9.97 nM; IC50 (nM), DLL4-Notch reporter assay, h1A11.1 + Av mixture, 150 nM BSG2 (negative control protein) present [1]: 10.9 nM; IC50 (nM), DLL4-Notch reporter assay, h1A11.1 + Av mixture, 150 nM VEGF present [1]: 10.3 nM |
| B2 | 29 nM | 1.5 nM |  |
| B3 |  | 2.43 nM |  |
| B4 | 50 nM | 3.41 nM |  |
| B5 |  | 7.38 nM |  |
| B6 |  | 2.77 nM |  |
| B7 |  | 3500 nM |  |
| B8 | 9.7 nM | 0.68 nM |  |
| B9 | 34 nM | 1.54 nM |  |
| B10 | 9.3 nM | 0.65 nM |  |
